# Laboratory results from the Human Domainome abundance scans (Beltran et al. 2025).
# ± gives the uncertainty stated by the source.
# B1: RAS guanyl-releasing protein 1, residues 539 to 593; numbered along this chain, O95267 (parent)
# chain: GFPHNFQETTYLKPTFCDNCAGFLWGVIKQGYRCKDCGMNCHKQCKDLVVFECKK
# Variants of: B1
# Assay: abundance fitness (aPCA) (normalised: wild type 0, dead -1); higher = more abundant; growth selection in yeast, the domain comes from the species named
# Details: Homo sapiens
row,Variant,abundance fitness
1,GFPHNFQETTDLKPTFCDNCAGFLWGVIKQGYRCKDCGMNCHKQCKDLVVFECKK,-0.832 ± 0.11
2,GFPHNFQETTYLKPTFCDKCAGFLWGVIKQGYRCKDCGMNCHKQCKDLVVFECKK,-0.052 ± 0.075
3,GFPHNFQETTYLKPTFCDSCAGFLWGVIKQGYRCKDCGMNCHKQCKDLVVFECKK,0.05 ± 0.062
4,GFPHNFQETTYLKPTFCDCCAGFLWGVIKQGYRCKDCGMNCHKQCKDLVVFECKK,-0.061 ± 0.093
5,GFPHNFQETTYLKPTFCDLCAGFLWGVIKQGYRCKDCGMNCHKQCKDLVVFECKK,-0.018 ± 0.084
6,GFPHNFQETTYLKPTFCDQCAGFLWGVIKQGYRCKDCGMNCHKQCKDLVVFECKK,-0.29 ± 0.17
7,GFPHNFQETTYLKPTFCDNCAGFLWGVIKQGYRCKDCGMNCHKQCKDMVVFECKK,0.055 ± 0.1
8,GFPHNFQETTYLKPTFCDNCAGFLWGVIKQGYRCKDCGMNCHKQCKDFVVFECKK,0.018 ± 0.11
9,GFPHNFQGTTYLKPTFCDNCAGFLWGVIKQGYRCKDCGMNCHKQCKDLVVFECKK,0.007 ± 0.074
10,GFPHNFQHTTYLKPTFCDNCAGFLWGVIKQGYRCKDCGMNCHKQCKDLVVFECKK,-0.765 ± 0.098
11,GFPHNFQETTYLKPTFCDNCAGFLWGPIKQGYRCKDCGMNCHKQCKDLVVFECKK,-0.297 ± 0.1
12,GFPHNFQETTYLKPTFCDNCAGFLWGVIKQGYRCKDCGMNCHKQCKDLHVFECKK,0.229 ± 0.1
13,GFPHNFQETTYLKPTFWDNCAGFLWGVIKQGYRCKDCGMNCHKQCKDLVVFECKK,-1.27 ± 0.34
14,GFPHNFQETTYLKPTFSDNCAGFLWGVIKQGYRCKDCGMNCHKQCKDLVVFECKK,-0.948 ± 0.18
15,GFPHNFQETTYLKPTFCDNCAGFLWGVIKQDYRCKDCGMNCHKQCKDLVVFECKK,-0.597 ± 0.12
16,GFPHNFQETTYLKPTFCDNCAGFLWGVIKQYYRCKDCGMNCHKQCKDLVVFECKK,-0.06 ± 0.13
17,GFPHNFQETTYLKPTFCDNCAGFLWGVIKQRYRCKDCGMNCHKQCKDLVVFECKK,-0.719 ± 0.1
18,GFPHNFQETTYLKPTFCDNCAGFLWGVIKQNYRCKDCGMNCHKQCKDLVVFECKK,-0.717 ± 0.3
19,GFPHNFQETTYLKPTFCDNCAGFLWGVIKQVYRCKDCGMNCHKQCKDLVVFECKK,-0.479 ± 0.067
20,GFPHNFQETTYLKPTFCDNCAGFLWGVIKQGYRQKDCGMNCHKQCKDLVVFECKK,-0.924 ± 0.26
21,GFPHNCQETTYLKPTFCDNCAGFLWGVIKQGYRCKDCGMNCHKQCKDLVVFECKK,-0.132 ± 0.12
22,GFPHNMQETTYLKPTFCDNCAGFLWGVIKQGYRCKDCGMNCHKQCKDLVVFECKK,-0.01 ± 0.14
23,GFPHNFQETTYLKPTFCDNCAGFLWGVIKQGYRCKDCGMNCHKQCKDLVCFECKK,0.042 ± 0.06
24,GFPHNFQETTYLKPTFCDNCAGFLWGVIKQGYRCKDCGMNCHKQCKDLVMFECKK,0.043 ± 0.11

row,Variant,abundance fitness
1,GFPHNFQETTYLKPTFCDNCAGFLWGVIKQGYRCKDCGMNCHKQCKDLVNFECKK,-0.228 ± 0.11
2,GFPHNFQETTYLKPTFCDNCAGFLWGVIKQGYRCKDCGMNYHKQCKDLVVFECKK,0.02 ± 0.1
3,GFPHNFQETTYLKPTFCDNCAGFLWGVIKQGYRCKDCGMNQHKQCKDLVVFECKK,-0.484 ± 0.17
4,GFPHNFQETTYLKPTFCDNCAGFLWGVIKQGYRCKDLGMNCHKQCKDLVVFECKK,-0.953 ± 0.1
5,GFPHNFQETTYLKPTFCDNCAGFLWGVIKQGYRCKDAGMNCHKQCKDLVVFECKK,-1.25 ± 0.4
6,GFPHNFQETTYLKPTFCDNCAGFLWGVIKQGYRCKDFGMNCHKQCKDLVVFECKK,-0.924 ± 0.18
7,GFPHNFQETTYLKPTFCDNCAGFLWGVIKQGYRCKDCMMNCHKQCKDLVVFECKK,-0.095 ± 0.085
8,GFPHNFQETTYLKPTFCDNCAGFLWGVIKQGYRCKDCFMNCHKQCKDLVVFECKK,-0.071 ± 0.1
9,GFPHNFQETTYLKPTFCDNCAGFLWGVIKQGYRCKDCEMNCHKQCKDLVVFECKK,0.077 ± 0.077
10,GFPHNFQETTYLKPTFCDNCAGFLWGVIKQGYRCKDCLMNCHKQCKDLVVFECKK,-0.075 ± 0.051
11,GFPHNFQETTYLKPTFCDNCAGFLWGVIKQGYRCKDCGMNCHKKCKDLVVFECKK,0.043 ± 0.099
12,GFPHNFQETTYLKPTFCDNCAGFLWGVIKQGYRCKDCGMNCHKYCKDLVVFECKK,0.128 ± 0.052
13,GFPHNFQETTYLKPTFCDNCAGFLWGVIKQGYRCKDCGMNCHKECKDLVVFECKK,0.131 ± 0.058
14,GFPHNFQETTYLKPTECDNCAGFLWGVIKQGYRCKDCGMNCHKQCKDLVVFECKK,-0.408 ± 0.11
15,GFPHNFQETTYLKPTDCDNCAGFLWGVIKQGYRCKDCGMNCHKQCKDLVVFECKK,-0.371 ± 0.1
16,GFPHNFQETTYLKPTFCDNCAGFLWGVIKQGYRCKDCGMCCHKQCKDLVVFECKK,-0.137 ± 0.06
17,GFPHNFQETTYLKPTFCDNCAGFLWGVIKQGYRCKDCGMTCHKQCKDLVVFECKK,-0.042 ± 0.042
18,GFPHNFQETTYLKPTFCDNCAGFLWGVIKQGYRCKDCGGNCHKQCKDLVVFECKK,-0.097 ± 0.049
19,GFPHNFQETTYLKPTFCDNCAGFLWGVIKQGYRCKDCGMNCHKQCKDLVVNECKK,0.256 ± 0.11
20,GFPHNFQETTYLKPTFCDNCAGFLWGVIKQGYRCKDCGMNCHKQCKDLVVPECKK,-0.07 ± 0.064
21,GFPHNFQETTYLKPTFCDNCAGFLWGVIKQGYRCKDCGMNCHKQCKDLVVAECKK,-0.074 ± 0.083
22,GFPHNFQETTYLKPTFCDNCAGFLWGVIKQGYRCKDCGMNCHKQCKDLVVVECKK,-0.046 ± 0.077
23,GFPHNFQETTYLKPTFCDNCAGFLWGVIKQGYRCKDCGMNCHKQCKDLVVLECKK,-0.053 ± 0.067
24,GFPHNFQETTYLKPTFCDNCAGFLWGVIKQGYRCKDCGMNCHKQCKDLVVTECKK,-0.435 ± 0.14
